Experimental findings from patent EP3837551B1 (Medizinische Hochschule Hannover, dated 2024) are described below.

Test [1] has as its target T1, Serum-derived FHR1 (FHR1 from normal human serum, NHS) (human, UniProt Q03591 19-330).
T1 construct: mature; The background text says serum FHR1 circulates as homodimers and as heterodimers with FHR2; also called FHR1 from NHS
T1 sequence (looked up): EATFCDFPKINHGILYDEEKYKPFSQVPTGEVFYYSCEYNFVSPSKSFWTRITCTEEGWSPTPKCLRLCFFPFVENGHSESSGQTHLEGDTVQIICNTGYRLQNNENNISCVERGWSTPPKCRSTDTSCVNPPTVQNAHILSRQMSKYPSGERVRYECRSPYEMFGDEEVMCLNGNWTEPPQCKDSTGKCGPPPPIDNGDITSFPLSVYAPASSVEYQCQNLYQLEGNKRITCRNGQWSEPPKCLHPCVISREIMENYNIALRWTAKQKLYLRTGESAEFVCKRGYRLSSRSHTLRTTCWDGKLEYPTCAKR
In words: ELISA, FHR1 SCR1-2 immobilized, 5% NHS, detection with mAb C18. Background: In an ELISA, binding on a coated surface is turned into a signal by an enzyme label.

The target of test [2] is T2, Recombinant FHR2, expressed in Pichia pastoris (human, UniProt P36980 19-270).
T2 construct: also called CFHR2
T2 sequence (looked up): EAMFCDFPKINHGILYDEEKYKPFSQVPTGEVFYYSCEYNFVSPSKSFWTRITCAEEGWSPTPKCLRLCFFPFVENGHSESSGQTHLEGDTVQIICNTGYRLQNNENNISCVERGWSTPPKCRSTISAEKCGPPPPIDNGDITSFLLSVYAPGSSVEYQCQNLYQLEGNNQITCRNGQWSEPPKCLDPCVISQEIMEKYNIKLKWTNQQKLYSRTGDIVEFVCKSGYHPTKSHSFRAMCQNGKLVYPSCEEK
In words: competition ELISA, FHR2 at 0-15 ug/mL against serum FHR1 on immobilized FHR1 SCR1-2.

In the next test the target is T3, BSA (UniProt P02769 25-607).
T3 construct: Control protein coated on the plate
T3 sequence (P02769 25-607 limits assumed): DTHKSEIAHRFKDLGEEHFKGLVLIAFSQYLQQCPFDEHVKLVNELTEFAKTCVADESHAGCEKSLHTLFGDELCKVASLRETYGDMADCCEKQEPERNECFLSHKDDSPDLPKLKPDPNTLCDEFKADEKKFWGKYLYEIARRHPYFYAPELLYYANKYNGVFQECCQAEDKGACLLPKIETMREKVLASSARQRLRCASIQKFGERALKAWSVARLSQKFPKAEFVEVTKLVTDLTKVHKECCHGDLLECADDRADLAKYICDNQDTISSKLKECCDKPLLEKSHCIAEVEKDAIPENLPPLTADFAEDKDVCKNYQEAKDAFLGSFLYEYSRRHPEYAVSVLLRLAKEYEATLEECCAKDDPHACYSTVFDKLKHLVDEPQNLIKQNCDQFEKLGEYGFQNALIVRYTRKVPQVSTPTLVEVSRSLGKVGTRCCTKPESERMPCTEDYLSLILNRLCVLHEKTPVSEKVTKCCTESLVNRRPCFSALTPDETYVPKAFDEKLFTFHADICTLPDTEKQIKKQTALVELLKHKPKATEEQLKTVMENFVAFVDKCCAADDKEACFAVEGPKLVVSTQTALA
In words: ELISA, BSA coated at 5 ug/mL, FHR1 detected with polyclonal FHR1 antibody.

B1: Recombinant FHR1 SCR1-2 (N-terminal fragment of FHR1) (other, human, UniProt Q03591 19-142, looked up)
chain: EATFCDFPKINHGILYDEEKYKPFSQVPTGEVFYYSCEYNFVSPSKSFWTRITCTEEGWSPTPKCLRLCFFPFVENGHSESSGQTHLEGDTVQIICNTGYRLQNNENNISCVERGWSTPPKCRS
notes: domain: SCR1-2; Expressed in P. pastoris; also called SCR1-2 of FHR1
With B1, the binding result in test [1] and in test [2] was “binds” each time.

B2: Recombinant factor H related protein 1 (FHR1), expressed in Pichia pastoris (other, human, UniProt Q03591 19-330, looked up)
chain: T1 sequence (looked up)
notes: also called CFHR1; Complement Factor H-Related Protein 1
Turning to B2, the binding result in the test with BSA was “no binding (tested: 30 ug/mL FHR1)”.
